Results on 20 sequences are retold here after a protein production outcome set (Wang et al. 2014).

The nature of the data set: label from the status in PepcDB records.
Consider “MPLTNNSTTKPQEIAAIDLGSNSFHMVIARVVNGALQVLGRLKQRVHLADGLDSNNMLSEEAIERGLACLALFAERLQGFSPDNVCIVGTHTLRQAANAETFLKRAAEVIPYPIEIISGQEEARLIFMGVEHTQPEKGRKLVIDIGGGSTEMVIGEDFEPLLVESRRMGCVSFAQQFFPGGEISKNNFRRARLAAAQKLENLAWQYRIQGWQYALGASGTIKATYEVLVEMGEKDGLITPERLEMLVENVLQFKQFSALSLPGLSEDRQSVFVPGLAILCGVFDALAIKTLRLSDGALREGVLYEMEGRFRHQDIRQRTAKSLADHYNIDREQARRVLETTEQLYTQWLAQNTKLVQPQLEALLKWAAMLHEVGLSINHSGMHRHSAYILQNTNLPGFNQEQQTLLATLVRMHRKAIKLDELPRLNLFKKKYYLPLIQLLRLSTLLNNQRQSTTTPESLRLITDDSHWTLRFPHGYLTQNSLVQLDFEREQAYWDDVVGWKLVIEEEEPDEAAKVAPEE”, for which the protein production entry is “not failed”.
The value for “LKLTKIIVSEAGASVYSASEIAANEFPDLDVSLRGAVSIARRLQDPLAELVKIEAKSIGVGQYQHDVNQAKLARCLDGVVEDCVNAVGVDINTASAALLSHISGLNDTLAKNIVQFRDEHGAFTNRNQLKNIHRMGEKAFQQAAGFLRIMNGDNALDASCVHPEAYPLVEKIISDKKVSIKEIIGNRELLQSINAEQYVDENFG” was “failed”.
As for “MKKLAIAISTILLSGAAYAGNTADVELFNADDNDVNIFQMSPAVGNDADVLIRNSDENEVDIYQMGRHNDAVVRVRNGSDDNDLMIDQDGRHNRAVLKARLGSDENDFAIEQDGRLNLGKVIADDSDNNNGLIDQRGRRNEAYINFDSASDNSNNKIVQRGRRNEGEISVMGGSNNGTLKIRQKGHDNDSKIHVYGGSGNEALTKINGDDNTTYTAFYAGASDNDTTILMKNDSLDNTVYAVVVGGSFNEADVTIDSSNDNFVSVAQWGDSSMAEVTLENGSNDNWIMINQTNNDMATVTADNSSYNAVVITQL”, the protein production entry is recorded as “failed”.
With “METESIKLDVQVTTTSQDPSLGLLSTVIITLDRDLEEYDENVDSIKSLGSYPDSSTPDESLIILKLPTSEPDYIYLTLRSKLKDHLHDHVLSEEIADQIFEAQLGTQSIDQFPFQQPLFMLVSVKLTQKLYTYAPCNASPLATDLTKRAK”, the protein production entry was “failed”.
Turning to “MGHHHHHHSHGFNKFGGPRDQGSRHDSEQDNSDNNTIFVQGLGENVTIESVADYFKQIGIIKTNKKTGQPMINLYTDRETGKLKGEATVSFDDPPSAKAAIDWFDGKEFSGNPIKVSFAT”, the protein production result is “failed”.
For “MRGWICVKLTKLNIKKYRAPIYKYALANVNLRSAKSTNSSIITVIPQGAKMEVLDEEDDWIKVMYNSQEGYVYKDLVSVSEYAWSNLNLREDKSTTSNIITVIPEKSRVEVLQVDGDWSKVVYDDKIGYVFNYFLSIDGNKPNELDYKYFYTDMIKFVNENNIKSTSDYLIVTDLRNKYTYIFKKDNGGWGQLYKWQCTIGKPETPTITGIFYISGRKPSFGTDEYSVKYATRIKGGYYYHSVLYDSTGSYIIDGRLGEALSHGCIRLSTENAKWIYDNIPDTTTVIIH” the value was “failed”.
The value for “QQMQAESGFVQHVGFKCDNCGIEPIQGVRWHCQDCPPEMSLDFCDSCSDCLHETDIHKEDHQLEPIYRS” was “not failed”; that for “MIRFQPITTSDVQHYKFMEELLVESFPPEEYRELEHLREYTDRIGNFHNNIIFDDDLPIGFITYWDFDEFYYVEHFATNPALRNGGYGKRTLEHLCEFLKRPIVLEVERPVEEMAKRRINFYQRHGFTLWEKDYYQPPYKEGDDFLPMYLMVHG” was “failed”; that for “MTHYHFVGIKGSGMSSLAQIMHDLGHEVQGSDIESYVFTEVALRNKGIKILPFDANNITKEMVVIQGNAFPDNHEEIVRAHELKLDIIKYHDFLGHVINQYTSVAVTGAHGKTSTTGLLSHVMNGDKKTSFLIGDGTGMGLPGSDYFAFEACEYRRHFLSYHPDYAIMTNIDFDHPDYFKNIDDVYDAFQHMALNVKKGIIAWGDDEYLRKLDVDIPVYYYGFKETDDIYAKNIQITEKGTQFDVYIKGEFYDQFLSPQYGNHNILNALAVIAISYLEDMNVENIKEALITFGGVKRRFNETKVSNQVIVDDYAHHPREISATIETARKKYPQKDVVAVFQPHTFSRTQAFLNEFAESLSKADQVFLCEIFGSIRENTGDLTIEDLINRIDGSTLIDENSIDVLEKFDNAVILFMGAGDIQKLLKAYFEKLGVKNDF” was “failed”.
Consider “MTTPPARTAKQRIQDTLNRLELDVDAWVSTAGADGGAPYLVPLSYLWDGETFLVATPAASPTGRNLSETGRVRLGIGPTRDLVLVEGTALPLEPAGLPDGVGDTFAEKTGFDPRRLTTSYLYFRISPRRVQAWREANELSGRELMRDGEWLVTD”, for which the protein production entry was “not failed”.
As for “MFTFGFTNPEGTPDFSTPGLICIAILYIVGIYINFVFTIRRLHDRNNTGWLSLLMLVPVVNIGLAIYLFCAKGTEGPNDYGPKRPTPSWERVLGWIYIALIPLALIFGVIAVIMAPTYEGYVEKSESIVIGSPSQSE”, the protein production result is “failed”.
For “MPCVQAQYGSSPQGASPASQSYSYHSSGEYSSDFLTPEFVKFSMDLTNTEITATTSLPSFSTFMDNYSTGYDVKPPCLYQMPLSGQQSSIKVEDIQMHNYQQHSHLPPQSEEMMPHSGSVYYKPSSPPTPTTPGFQVQHSPMWDDPGSLHNFHQNYVATTHMIEQRKTPVSRLSLFSFKQSPPGTPVSSCQMRFDGPLHVPMNPEPAGSHHVVDGQTFAVPNPIRKPASMGFPGLQIGHASQLLDTQVPSPPSRGSPSNEGLCAVCGDNAACQHYGVRTCEGCKGFFKRTVQKNAKYVCLANKNCPVDKRRRNRCQYCRFQKCLAVGMVKEVVRTDSLKGRRGRLPSKPKSPQEPSPPSPPVSLISALVRAHVDSNPAMTSLDYSRFQANPDYQMSGDDTQHIQQFYDLLTGSMEIIRGWAEKIPGFADLPKADQDLLFESAFLELFVLRLAYRSNPVEGKLIFCNGVVLHRLQCVRGFGEWIDSIVEFSSNLQNMNIDISAFSCIAALAMVTERHGLKEPKRVEELQNKIVNCLKDHVTFNNGGLNRPNYLSKLLGKLPELRTLCTQGLQRIFYLKLEDLVPPPAIIDKLFLDTLPF” the value was “not failed”; for “MERKINRREKEKEYEGKHNSLEDTDQGKNCKSTLMTLNVGGYLYITQKQTLTKYPDTFLEGIVNGKILCPFDADGHYFIDRDGLLFRHVLNFLRNGELLLPEGFRENQLLAQEAEFFQLKGLAEEVKSRWEKEQLTPRETTFLEITDNHDRSQGLRIFCNAPDFISKIKSRIVLVSKSRLDGFPEEFSISSNIIQFKYFIKSENGTRLVLKEDNTFVCTLETLKFEAIMMALKCGFRLLTSLDCSKGSIVHSDALHFIK”, “failed”; for “MTAVETKKQYLTVFKEDGIAEIHLHINKSNSYDLEFYKEFNAAIDDIRFDPDIKVVIVMSDVPKFFSAGADINFLRSADPRFKTQFCLFCNETLDKIARSPQVYIACLEGHTVGGGLEMALACDLRFMGDEAGKIGLPEVSLGVLAGTGGTQRLARLIGYSRALDMNITGETITPQEALEIGLVNRVFPQAETRERTREYARKLANSATYAVSNIKLAIMNGKEMPLNVAIRYEGELQNLLFRSEDAKEGLSAFLEKRQPNWKGI”, “not failed”.
Regarding “MRPVLLLCCLFLSATAQAEDCSPQTSVGSWCELPLAALHPTQQNVGLLQVEDDQAKLAGKKPKALERYLRKKEIPVVIGPGGRFYLTDRHHLSSALWRLDPKQGVPVKVIGRLPQASDFWEKMQENHWVWLHDARGAEIPPEALPDALAGLGDDPYRALAGYAEDENAFDKDRQSYFIEFHWARYFGERMHWRPISRATLPDDLKQALRLACEPAARELPGYRQDCPHLEHHHHHH”, the protein production entry is on record as “failed”.
For “MTIRAGSLDRRTLLRGAIATAAMGSFAVACSSPSSEDKESDSGPKGEKSANNPFGAAANSTVEAAIFDGGYGTDYVDYANQVLGSQVKGLKVQVKPVVDIAPQLQPRFVGGNPPDLIDNSGEDQIGFLGILDQLEELDDLFEASTYEGKKIADIVYPGVKDPGTFKDKFVALNYVMTVYGVWYSKTLFEENGWTPPKTWDEALDLGQEAKKKGKYLFVHGKEAATYYRTLLIDSAIKEGGDEVRLALENLEKGCWSHPAVQGVIKVMETMVKQKMFVPGGSGTQFQKAQAIWSNDQKALLYPSGGWIENEMKKATKADFQMTGIPSMTLTDKPALPYEALRAAAGEPFIVPKQGKNPAGGKEVLRAMLSEKAAANFSKTKLAPTIVKGTVPADGYGSTALVSQTKMLEAAGTNIFNYMFVETYGLNTDQLVPWNSFLAGDLDGKGLTSALQKISDKVREDDSVDKVKVS” the value was “failed”; for “MLITISDIAWGIALSIWVAIVVLYISKLISKKFGAYVTRKAIHMLGGGIVAVLSPFVFNSPLVPIITSYLIMAYLITIRVLRKEMSWFMDKENLGEVFFAFSFGTVLLVMFILDPNYWTSTDLIYVAVLPLIFMSFGDGITGIIRNFVYKRRVKGLWGSMGMLIFCATVGYFVLNIPGLIAGILATVAELLPYIDDNISVPFLSFLFLYLFVRVL”, “failed”.
For the sequence “MMIITTMQDAIGRTPVFKFTNKDYPIPLNSAIYAKLEHLNPGGSVKDRLGQYLIGEGFKTGKITSKTTIIEPTAGNTGIALALVAIKHHLKTIFVVPEKFSTEKQQIMRALGALVINTPTSEGISGAIKKSKELAESIPDSYLPLQFENPDNPAAYYHTLAPEIVQELGTNLTSFVAGIGSGGTFAGTARYLKERIPAIRLIGVEPEGSILNGGEPGPHEIEGIGVEFIPPFFENLDIDGFETISDEEGFSYTRKLAKKNGLLVGSSSGAAFVAALKEAQRLPEGSQVLTIFPDVADRYLSKGIYL”, the protein production entry was “failed”.
Turning to “MDQQSIVSILMILATFGLYIGISIYNRARATSDFYVASRGVPPFWNGMAIGGDWMSAASFIGMAGTIMILGYDGLAYIMGWTGGYLFLTFLFAPQLRKYGRYTVPEFIGDRYGSNTARLIAAIATIIISFTYIIGQLSGSGVVIGRILNIPAMYGTMIGVVVIAIYATLGGMKGITWTQVAQYIILIVAYIIPIVFMSLQLSGNPFPWLTYGNFISQLDGLDQELGLSQILQPFMESDKSQFIALMFTLMVGTAALPHVIVRFYTVTTMKAARWSGAWALIFIALLYLSAPAYAAFSRFILMTQVANQPIDQLPAWTEAWINTGLLEMADANGDGILQWEELRISNDIVVMATPEIANLGMFVIGLVAAGAMAAALSTAGGLLITISSSFAHDIYYRLMNPKASDQKRLLAGRIAIVLATIVAGVVALDPPGVITQIVAWAFGLAGGAFFPVLLLGVWWKRANAKGAIAGMLSGLAVTLVYIFLARTGTFTLFGIQDTGAGLIGVPVNLFVTIVVSLMTAAPSQKLQDEVVDLRYPEQMTYKDGEVWMDESSGK”, the protein production result is “failed”.
Take “MGEDRRSLRVDYDDNFLRNNICSLKVSFIKQQGGAEGVKRLYADLGLALVALIWGSTFPVVKIALDSMSPFAFNTVRFFIACLFFLPFLKGWDFKDGFKIGIASFLGYTFQTVGLDYTTATNAGFITSTYVVLAPIISWLVYKDVFDKRDVSGVLLAFVGFYFLSGYSGFNIGDILMLFCALFFGAEIAMISHYSRLSNPTMLAFWQSFAIFILSAPFAVFTTTKFEINTTVILCLLITAFFATFVAKMLQNWLQSYTKSSDAAVILSLEGVFAHLFSVAVLAEILTPVQYFGAFLILLAVIIVSLRV”: the protein production result is given as “failed”.
